Experimental findings from the supplement of paper PMC10724198 are described below.

In data set [1] the test system is Saccharomyces cerevisiae. Description: protein stability index of tFT-peptide fusion (C-terminal peptide) (PSI (0-1 scale)); higher = more stable (slower turnover). The note with it: genetic background: wild type; temperature: 30 C.
Data set [2] relates to Saccharomyces cerevisiae. The description is as above. The method, then:
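MPS profiling in S. cerevisiae of the tFT-X12 degron library: putative degron peptides plus stable controls, 12 aa, fused to the C-terminus of a sfGFP-mCherry timer. Cells are FACS-sorted into 8 mCherry/sfGFP bins and deep-sequenced. PSI runs from 0 (unstable) to 1 (stable). Backgrounds are wild type, das1Δ and doa10Δ at 30 °C, and wild type, das1Δ, cdc34-1 and cdc53-1 at 37 °C; 2-3 technical replicates each.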

The mark [3] stands for this setting: genetic background: cdc34-1, temperature: 37 C.
Where [4] appears, read: genetic background: cdc53-1, temperature: 37 C.
Setting [5] is: genetic background: das1 deletion, temperature: 30 C.
Setting [6] is: genetic background: das1 deletion, temperature: 37 C.
[7] abbreviates: genetic background: doa10 deletion, temperature: 30 C.
[8] abbreviates: genetic background: wild type, temperature: 30 C.
Setting [9] is: genetic background: wild type, temperature: 37 C.

± gives the standard deviation of the averaged measurements.
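Also: PSI is a weighted mean of sequencing reads over stability bins, variants kept only with over 10 reads, mCherry proximal and sfGFP distal, peptide attached via GGGS linker.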

Consider FLLCGVFFFFFV, for which the protein stability index in data set [1] turned out to be 0.4286 ± 0.0014; in data set [2] (setting [3]), 0.323 ± 0.0043; in data set [2] (setting [4]), 0.405 ± 0.046; in data set [2] (setting [5]), 0.288 ± 0.025; in data set [2] (setting [6]), 0.3092 ± 0.00041; in data set [2] (setting [7]) it was 0.344 ± 0.012. The protein stability index in data set [2] (setting [8]) worked out at 0.245 ± 0.032; in data set [2] (setting [9]), 0.319 ± 0.013.

In the case of FLLGWFLFFVCS, the protein stability index was 0.406 ± 0.043 in data set [1]; 0.401 ± 0.015 in data set [2] (setting [3]); 0.422 ± 0.019 in data set [2] (setting [4]); 0.32 ± 0.027 in data set [2] (setting [5]); 0.4361 ± 0.0024 in data set [2] (setting [6]); 0.289 ± 0.012 in data set [2] (setting [7]). Further, the protein stability index in data set [2] (setting [8]) turned out to be 0.283 ± 0.027; in data set [2] (setting [9]), 0.393 ± 0.013.

With FLLYSILLAFLL, the protein stability index in data set [1] stood at 0.436 ± 0.011; in data set [2] (setting [3]) it was 0.524 ± 0.034; in data set [2] (setting [4]) it was 0.503 ± 0.02; in data set [2] (setting [5]), 0.415 ± 0.033; in data set [2] (setting [6]), 0.546 ± 0.0071; in data set [2] (setting [7]) it was 0.37 ± 0.012. Besides, the results for the protein stability index in data set [2] (setting [8]) and in data set [2] (setting [9]) were 0.345 ± 0.033 and 0.492 ± 0.037, respectively.

FLMLFVVLWLFL: the protein stability index is 0.366 ± 0.076 in data set [1]; 0.427 ± 0.026 in data set [2] (setting [3]); 0.46 ± 0.0076 in data set [2] (setting [4]); 0.394 ± 0.028 in data set [2] (setting [5]); 0.522 ± 0.071 in data set [2] (setting [6]); 0.389 ± 0.014 in data set [2] (setting [7]). In addition, the protein stability index in data set [2] (setting [8]) worked out at 0.369 ± 0.04; in data set [2] (setting [9]), 0.448 ± 0.0072.

With FLPFRVFNFSLV, the protein stability index in data set [1] stood at 0.38 ± 0.063; in data set [2] (setting [3]) it was 0.659 ± 0.031; in data set [2] (setting [4]), 0.713 ± 0.015; in data set [2] (setting [5]), 0.653 ± 0.035; in data set [2] (setting [6]) it was 0.725 ± 0.015; in data set [2] (setting [7]) it was 0.22 ± 0.011. For the same sequence, the protein stability index in data set [2] (setting [8]) amounted to 0.229 ± 0.026; in data set [2] (setting [9]), 0.441 ± 0.05.

Regarding FLSFARSSCLWF, the protein stability index in data set [1] amounted to 0.748 ± 0.016; in data set [2] (setting [3]), 0.678 ± 0.028; in data set [2] (setting [4]), 0.7423 ± 0.0011; in data set [2] (setting [5]) it was 0.657 ± 0.015; in data set [2] (setting [6]) it was 0.739 ± 0.014; in data set [2] (setting [7]), 0.676 ± 0.03. The protein stability index was determined as 0.666 ± 0.0085 in data set [2] (setting [8]) and 0.7115 ± 0.00098 in data set [2] (setting [9]).

For the sequence FMSAGVSWIFFV, the protein stability index in data set [1] came to 0.343 ± 0.047; in data set [2] (setting [3]), 0.579 ± 0.021; in data set [2] (setting [4]), 0.7146 ± 0.0024; in data set [2] (setting [5]) it was 0.601 ± 0.021; in data set [2] (setting [6]), 0.7503 ± 0.0043; in data set [2] (setting [7]), 0.105 ± 0.013. For the same sequence, the protein stability index was determined as 0.13 ± 0.012 in data set [2] (setting [8]) and 0.129 ± 0.011 in data set [2] (setting [9]).

Take FNLWCRQLASIE: the protein stability index in data set [1] worked out at 0.327 ± 0.094; in data set [2] (setting [3]) it was 0.181 ± 0.034; in data set [2] (setting [4]) it was 0.218 ± 0.0042; in data set [2] (setting [5]), 0.276 ± 0.0061; in data set [2] (setting [6]), 0.187 ± 0.0035; in data set [2] (setting [7]) it was 0.29904 ± 0.00019. The results for the protein stability index in data set [2] (setting [8]) and in data set [2] (setting [9]) were 0.284 ± 0.012 and 0.178 ± 0.0067, respectively.

Regarding FPLFCRIHLLCS, the protein stability index in data set [1] turned out to be 0.107 ± 0.0096; in data set [2] (setting [3]), 0.138 ± 0.0083; in data set [2] (setting [4]), 0.157 ± 0.0044; in data set [2] (setting [5]), 0.2 ± 0.017; in data set [2] (setting [6]), 0.275 ± 0.0037; in data set [2] (setting [7]), 0.059 ± 0.02. Further, the results for the protein stability index in data set [2] (setting [8]) and in data set [2] (setting [9]) were 0.0768 ± 0.011 and 0.0529 ± 0.0047, respectively.

With FPPHFLPLVFLS, the protein stability index in data set [1] was 0.103 ± 0.0049; in data set [2] (setting [3]), 0.436 ± 0.035; in data set [2] (setting [4]), 0.5867 ± 0.0031; in data set [2] (setting [5]) it was 0.56 ± 0.026; in data set [2] (setting [6]), 0.67 ± 0.0083; in data set [2] (setting [7]), 0.0786 ± 0.017. The protein stability index in data set [2] (setting [8]) was 0.0804 ± 0.02; in data set [2] (setting [9]), 0.0988 ± 0.0048.

In the case of FPRPLPVPLAVS, the protein stability index in data set [1] was 0.25711 ± 0.00013; in data set [2] (setting [3]), 0.153 ± 0.023; in data set [2] (setting [4]), 0.217 ± 0.06; in data set [2] (setting [5]), 0.193 ± 0.033; in data set [2] (setting [6]) it was 0.2901 ± 0.0012; in data set [2] (setting [7]) it was 0.15456 ± 3.3e-05. Also, the protein stability index in data set [2] (setting [8]) amounted to 0.181 ± 0.0047; in data set [2] (setting [9]) it was 0.221 ± 0.005.

Take FPWGRIFLRLRT: the protein stability index was 0.487 ± 0.049 in data set [1]; 0.34 ± 0.083 in data set [2] (setting [3]); 0.347 ± 0.025 in data set [2] (setting [4]); 0.47 ± 0.042 in data set [2] (setting [5]); 0.565 ± 0.01 in data set [2] (setting [6]); 0.5445 ± 0.0029 in data set [2] (setting [7]). In addition, the protein stability index was 0.441 ± 0.015 in data set [2] (setting [8]) and 0.5125 ± 0.0051 in data set [2] (setting [9]).

FQFTLWRTLLCS: the protein stability index in data set [1] was found to be 0.189 ± 0.0077; in data set [2] (setting [3]), 0.1843 ± 0.00066; in data set [2] (setting [4]), 0.248 ± 0.03; in data set [2] (setting [5]), 0.218 ± 0.026; in data set [2] (setting [6]) it was 0.3394 ± 0.0027; in data set [2] (setting [7]), 0.113 ± 0.015. Moreover, the protein stability index is 0.137 ± 0.021 in data set [2] (setting [8]) and 0.174 ± 0.0054 in data set [2] (setting [9]).

For FQLGLVFCVCSG, the protein stability index in data set [1] came out at 0.367 ± 0.022; in data set [2] (setting [3]) it was 0.432 ± 0.0073; in data set [2] (setting [4]), 0.438 ± 0.022; in data set [2] (setting [5]), 0.258 ± 0.041; in data set [2] (setting [6]), 0.469 ± 0.0075; in data set [2] (setting [7]), 0.244 ± 0.0076. The protein stability index in data set [2] (setting [8]) is 0.258 ± 0.026; in data set [2] (setting [9]), 0.453 ± 0.016.

Turning to FQWILYIAKRVV, the protein stability index in data set [1] was 0.338 ± 0.021; in data set [2] (setting [3]), 0.556 ± 0.095; in data set [2] (setting [4]), 0.671 ± 0.04; in data set [2] (setting [5]) it was 0.473 ± 0.036; in data set [2] (setting [6]) it was 0.603 ± 0.0069; in data set [2] (setting [7]) it was 0.259 ± 0.059. The protein stability index in data set [2] (setting [8]) came to 0.261 ± 0.044; in data set [2] (setting [9]), 0.442 ± 0.051.
